Laboratory results reported in patent US20130203167A1 (SYRACUSE UNIVERSITY, published 2013).

B1: Win motif peptide LNPHGAARAEVYLR (SEQ ID NO. 31) (peptide)
peptide: Ac-LNPHGAARAEVYLR-NH2
B2: Win motif peptide EHVTGCARSEGFYT (SEQ ID NO. 33) (peptide)
peptide: Ac-EHVTGCARSEGFYT-NH2
B3: Win motif peptide INPTGCARSEPKIL (SEQ ID NO. 29) (peptide)
peptide: Ac-INPTGCARSEPKIL-NH2
B4: Win motif peptide EHQTGSARSEGYYP (SEQ ID NO. 32) (peptide)
peptide: Ac-EHQTGSARSEGYYP-NH2
B5: Win motif peptide VNPTGCARSEPKMS (SEQ ID NO. 30) (peptide)
peptide: Ac-VNPTGCARSEPKMS-NH2

Each binder was assayed against full-length WDR5 (UniProt P61964 2-334) (assay: method not stated; ITC with full-length WDR5 by the Methods).

Binder	Kd [nM]
B1	52
B2	116
B3	78
B4	415
B5	47
